For assay [1], the target named is T1, mouse TMEM106B (mouse, UniProt Q80X71 2-275).
T1 construct: Full-length cDNA transiently transfected into HEK293 cells; also called muTMEM106B; murine TMEM106B
Nature of the assay: flow cytometry, HEK293 cells transiently transfected with murine TMEM106B.
Description: (§1) For screening of the hybridoma cell culture supernatants, humanTMEM106B-transfected HEK293 cells were aliquoted in 96-well round bottom plates (2×10⁵ cells per well) and incubated with 50 μL of hybridoma cell culture supernatant on ice for 30 minutes. […] Cell sorting was performed on a FACS Canto system (BD Biosciences) or iQue (Intellicyt), with sort gates drawn to exclude dead (i.e., propidium iodide-positive) cells. Median fluorescence intensity (MFI) of anti-mouse-APC MFI on TMEM106B+ HEK293 cells was calculated for each clone, and those displaying a signal of at least 2-fold over background compared to a secondary-antibody only well were taken forward for further analysis and characterization.

Assay [2] deals with T2, human TMEM106B (human, UniProt Q9NUM4 2-274).
T2 construct: Full-length cDNA transiently transfected into HEK293 cells; also called huTMEM106B
Description: flow cytometry, HEK293 cells transiently transfected with human TMEM106B.
Description: as §1

Assay [3] addresses T3, cynomolgus (cyno) TMEM106B (cynomolgus, UniProt Q9NUM4 2-274 (human entry)).
T3 construct: Full-length cDNA transiently transfected into HEK293 cells
Nature of the assay: flow cytometry, HEK293 cells transiently transfected with cyno TMEM106B.
Description: as §1

The record followed here is patent US20240174746A1 (Alector, published 2024).

B1: TM-62 (antibody, V domains shown)
VH: QVQLQQPGTELVRPGSSVKLSCKAAGYTFTRYWMHWVKQRPIQGLEWIGNIDPSDSETQYNPKFKDKATLTVDRSSSTAYMHLSSLTSEDSAVYYCARLTTLDYAMDYWGQGTSVTVSS
VL: QIVLTQSPAIMSASPGEKVTISCSASSSVSYMYWYQQKAGSSPKPWIHRTSNLASGVPARFSGSGSGTSYSLTIRSMEAEDAATYYCQQYHSYPPTFGVGTKLELK
notes: Purified from mouse hybridoma
Take B1: the “fold-change in binding over parental HEK293 cells” value (from here on “fold-change in binding”) came to 0.86 fold in assay [1], 11.4 fold in assay [2] and 2.93 fold in assay [3].

B2: TM-63 (antibody, V domains shown)
VH: QVQLQQPGAELVKFGASVKLSCKASGYTFTSFWMHWVKQRPGQGLEWIGNIDPSDSETHYSQKFKDKATLTVDRSSNTAYIQLSSLTSEDSAVYYCARSSNWDNFDYWGQGTTVTVSS
VL: DIVMTQASPSVSVTPGESVSISCRSSQSLLHVNGNTYLYWFLQRPGRSPRLLIYRMSNLASGVPDRFSGSGSGTAFTLRISRVEAEDVGVYYCMQHLQYPFSFGSGTKLEMK
notes: Purified from mouse hybridoma
Regarding B2, the “fold-change in binding” value in assay [1] is 0.62 fold; in assay [2], 7.12 fold; in assay [3] it was 8.24 fold.

B3: TM-64 (antibody, V domains shown)
VH: QVQLQQPGAELVKPGASVKLSCKASGYTFTSYWMHWVKQRPGHGLEWIGNIDPSDSDTHYNQNFRGKATLTVDKFSTTAYMHLSSLTSEDSAVYYCARSRGGTYDYGEAMDYWGQGTSVTVSS
VL: DIVMTQAAPSVPVTPGESVSISCRSSKSLLHTNGNTYLFWFLQRPGRSPQLLIYRMSNLASGVPDRFSGSGSGTAFTLRISRVEAEDVGVYYCMQHLEYPFTFGSGTKLEIK
notes: Purified from mouse hybridoma
On to B3, for which the “fold-change in binding” value was found to be 1.07 fold in assay [1], 12.8 fold in assay [2] and 7.12 fold in assay [3].

B4: TM-83 (antibody, V domains shown)
VH: QVQLQQPGTELVKPGALVKLSCKASGYTFTTYWIHWVKQRPGQGLEWIGNINPSNGNTKNNERFKTKATLTVDKSSSTAYMQLSSLTSEDSAVYYCVRGDYYGTSYPFWGQGTLVTVSS
VL: DVVMTQTPLSLPVSLGDQASISCRSSQSLVHSNGITYLHWYLQKPGQSPKLLIYKVSNRFSGVPDRFSGSGSGTDFTLKISRVEAEDLGVYFCSQSTHVPYTFGGGTKLEIK
notes: Purified from mouse hybridoma
For the molecule B4, the figures for the “fold-change in binding” value in assay [1] and in assay [2] were 9.91 fold and 0.42 fold, respectively.

B5: TM-65 (antibody, V domains shown)
VH: QVQLQQPGAEFVKPGASVRLSCKTSGYTFTSSWMHWVKQRPGQGLEWIGEINPKNGGTNYNEKFKTKATLTVDKSSNTAYMQLSSLTSEDSAVYYCTIPTWFTYWGQGTLVTVSS
VL: DIQMNQSPSSLSASLGDTITITCRASQNINIWLSWYQQKPGNVPKLLIYKASNLHTGVPSRFSGSGSGTGFTLTISSLQPEDIATYYCLQGQSYPYTFGGGTKLGIK
notes: Purified from mouse hybridoma
For B5, the “fold-change in binding” value is 1.35 fold in assay [1], 4.14 fold in assay [2] and 2.15 fold in assay [3].

B6: TM-76 (antibody, V domains shown)
VH: QVTLKESGPGILQPSQTLSLTCSFSGFSLSTSGMGVSWIRKPSGKGLEWLAHIFWDDDKRYNLFLKSRLTVSKDTSSNQVFLMITSVDTTDTATYYCARMGRQRDYFDYWGQGTSLTVSS
VL: QIILTQSPAIMSASLGEEITLTCSASLSISYVHWYQQKSGASPKLLIYGTSNLASGVPSRFSGSGSGTFYSLTISSVEAEDAADYYCHQWSIYRTFGGGTKLEMK
notes: Purified from mouse hybridoma
Turning to B6, the “fold-change in binding” value in assay [1] came to 0.7 fold; in assay [2] it was 6.52 fold; in assay [3] it was 4.35 fold.

B7: TM-82 (antibody, V domains shown)
VH: QVQLQQSGAELVRPGTSVRVSCKASGYAFTNYLIEWIKQRPGQGLEWIGVINPGSGITDYSEKFKGKARLTADKSSSTAYMQLSSLTSDDSAVYFCTRSPFITTVVADYWGQGTTVTVSS
VL: DVVVTQTPLSLPVSFGDQVSISCRSSQSLANTYGNTYLSWYLHTPGQSPQLLIFGISNRFSGVPDRFSGSGSGTDFTLKISTIKPEDLGVYYCLQGTHPPRTFGGGTKLEMK
notes: Purified from mouse hybridoma
Take B7: the “fold-change in binding” value was found to be 0.88 fold in assay [1] and 1.49 fold in assay [3].

B8: TM-66 (antibody, V domains shown)
VH: EVMLVESGGALVEPGGSLKLSCAASGITFSNYAMSWIRQTPEKRLEWVATIGSVGSYTYYPDSVKGRFTISRDNARNTLYLQMSSLRSEDTAMYYCARQEGSSHFDYWGQGTTLTVSS
VL: DVVVTQTPPSLPVSFGDQVSISCRSSQSLVNSYGKTFLSWYLHKPGQSPQLLIYGISNRFSGVPDRFSGSGSGTVFTLKISTIKPEDLGMYYCLQGTHPPLTFGAGTKLEMK
notes: Purified from mouse hybridoma
In the case of B8, the “fold-change in binding” value in assay [1] was 4.07 fold; in assay [2], 5.03 fold; in assay [3], 7.13 fold.

B9: TM-54 (antibody, V domains shown)
VH: QVQMQQSGPVLVKPGASVTLSCKASGYTFTTYDLNWVKQRPGQGLEWIGWIYPRGGSTEYNEKFKGKATLTVDTSSSTAYMELHSLTSEDSAVYFCAKYSIYAMDYWGQGTSVTVSS
VL: DVLMTQTPLSLPVSLGDQASISCRSSQSIVHGNGNTYLEWYLQKPGQSPKLLIYKVSNRFSGVPDRFSGSGSGTDFTLKISRVEAEDLGVYYCFQGSHVPWTFGGGTKLEMK
notes: Purified from mouse hybridoma
Take B9: the “fold-change in binding” value in assay [1] is 1.17 fold; in assay [2] it was 15.6 fold; in assay [3], 6.27 fold.

B10: TM-60 (antibody, V domains shown)
VH: QVQLQQSGPELVKPGASVKLSCKASGYTFTSYDINWVKQRPGQGLEWIGWIYPRDGNTQYIEKLKGKATLTVDTSSSTAYMELHSLTSEDSAVYFCARWIFYAMDYWGQGTSVTVSS
VL: DVLMTQTPLSLPVSLGDQASISCRSSQSIVHGNGNTYLEWYLQKPGQSPKLLIYKVSNRFSGVPDRFSGSGSGTDFTLKISRVEAEDLGVYYCFQGSHLPYTFGGGTKLEIK
notes: Purified from mouse hybridoma
For the molecule B10, the “fold-change in binding” value is 0.43 fold in assay [1], 4.39 fold in assay [2] and 2.63 fold in assay [3].

B11: TM-90 (antibody, V domains shown)
VH: QVHLQQSGPELVKPGASVKLSCKASGYPFTSYDINWVKQRPGQGLEWIGWIYPRDGNAKYNEKFKGKATLTVDTSSSTAYMELHSLTSENSAVYFCARVSDYHGGYGMDYWGQGTSVTVSS
VL: DVLMTQTPLSLPVSLGDQASISCRSSQSFVHGNGNTYLEWYLQKPGQSPKLLIYKVSHRFSGVPDRFSGSGSGTDFTLKITRVEAEDLGVYYCFQNSHVPHTFGGGTKLEIK
notes: Purified from mouse hybridoma
For B11, the “fold-change in binding” value in assay [2] stood at 1.25 fold; in assay [3] it was 1.32 fold.

B12: TM-73 (antibody, V domains shown)
VH: QVQLQQPGAELVKPGASVKLSCKASGYTFTSHWMHWVKHRPGQGLEWIGEIDPSDSYTYYNQKFKGKATLTVDKSSSTVYMQLSSLTSEDSAVYYCARNYHGSGPPFAHWGQGTLVTVSS
VL: QIVLTQSPAIMSASPGEKVTLTCSASSGISYIYWYQQRPGSSPRLLIYDTSNLASGVPVRFSGSGSETSYSLTISRLEAEDAATYYCHQWRSYPPTFGGGTKLEIR
notes: Purified from mouse hybridoma
Consider B12, for which the “fold-change in binding” value in assay [1] stood at 0.59 fold; in assay [2], 2.57 fold; in assay [3], 1.15 fold.

B13: TM-72 (antibody, V domains shown)
VH: QVQLQQPGAELVKPGTSVKLSCKASGSTFTNYWMHWVMQRPGQGLEWIGNIDPSDSDTHYNQKFKDRAKLTVDKSSSTAYMQLSGLTSEDSAVYYCARSRGGYYDYGEAMDYWGQGTSVTVSS
VL: DIVMTQAAPSVPVTPGESVSISCRSSKSLLHTNGNTYLFWFIQRPGQSPHLLIYRKSNLASGVPDRFSGSGSGTAFTLRISRVEAEDVGVYYCMQHLEYPFTFGSGTKLEIK
notes: Purified from mouse hybridoma
In the case of B13, the “fold-change in binding” value in assay [1] came to 0.23 fold; in assay [2] it was 3.81 fold.

B14: TM-59 (antibody, V domains shown)
VH: QVQLQQSGAELAKPGASVKLSCKASGYTFISYWMHWVKQRPGQGLEWIGYVNPSSGYTKNNQKFKDKATLTADKSSSTAYMQLSSLTYEDSAVYYCAREGGSISDWYFDVWGTGTTVTVSS
VL: DIVMTQAAPSVPVTPGESVSISCRSSKSLLHSNGNTYSYWFLQRPGQSPQLLIYRMSNLASGVPDRFSGSGSGTAFTLRISRVEAEDVGVYYCMQHLEYPYTFGGGTKLEIK
notes: Purified from mouse hybridoma
B14: the “fold-change in binding” value in assay [1] amounted to 0.42 fold; in assay [2], 8.71 fold.

B15: TM-56 (antibody, V domains shown)
VH: QVHLQQSGAELAKPGASVKLSCKASGYTFTSYWMHWVKQRPGQGLEWIGYINPSSGYSKYNQRFKDKATLTADKSSTTAYMHLSSLTYADSAVYYCTREGGSISDWYFDVWGTGTTVTVSS
VL: DIEMTQAAPSVPVTPGESVSISCRSSKSLLQNNGNTYLYWFLQRPGQPPQLLIYRMSNLASGVPDRFSGSGSGTAFTLRISRVEAEDVGVYYCMQHLEYPYTFGGGTKLEIK
notes: Purified from mouse hybridoma
As to B15, the “fold-change in binding” value came out at 0.47 fold in assay [1], 9.35 fold in assay [2] and 4.49 fold in assay [3].

B16: TM-61 (antibody, V domains shown)
VH: QVQLQQSGAELAKPGASVKLSCKASGYTFTNYWMNWVKQRPGQGLEWIGYINPSSDYTKYNQNFKDKATLTADKSSSTAYMQLNSLTYEDSAVYYCTRWGGSRSYWYFDVWGAGTTVTVSS
VL: DIVMTQSPSSLSASAGEKVTMSCKSSQSLLNSGNQKNYLAWYQQKPGQSPKLLIYGASTRESGVPDRFTGSGSGTDFTLTISSVQAEDLAVYYCQNDSNYPFTFGGGTKLEMK
notes: Purified from mouse hybridoma
Consider B16, for which the “fold-change in binding” value amounted to 0.68 fold in assay [1], 5.07 fold in assay [2] and 5.15 fold in assay [3].
